Consider two molecules from publication PMC11626198, “Molecular insights into the interaction between a disordered protein and a folded RNA”.

The series has as its target T1, SERF (Small ERDK-Rich Factor) (Saccharomyces cerevisiae, UniProt Q3E7B7).
T1 sequence: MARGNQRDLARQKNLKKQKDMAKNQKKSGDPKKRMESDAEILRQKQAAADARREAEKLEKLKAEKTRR
Nature of the series: fluorescence anisotropy; 1:1 model, KD,app; Anisotropy buffer not given in the material; NMR at 27 C; native IM-MS in 100 mM ammonium acetate pH 7.5. The settings on record: protein: recombinant, tags: His6-SUMO removed by ULP1 (scarless).

As for UUUUUUUUUUUUUUUUUUUUUUUUUUUUUU (ssRNA) [FAM-(rU)30], the Kd (single strand) came to 1900 ± 200 nM. For GGCAGAUCUGAGCCUGGGAGCUCUCUGCC (structured_RNA) [FAM-TAR], the Kd (hairpin with UCU bulge and hexanucleotide loop) came to 670 ± 40 nM.
